This note sets out measurements from US8772229B2, “Methods for synthesis and uses of inhibitors of ghrelin O-acyltransferase as potential therapeutic agents for obesity and diabetes” (The Johns Hopkins University, priority 2008, dated 2014).

Structures are written as SMILES. Bounds are passed on as bounds.

Data set [1] has as its target T1, PCAF HAT (Homo sapiens, UniProt Q92831).
T1 construct: Recombinant acetyltransferase domains and histone tail peptides were prepared as described previously (38-40); made in house
The data set is described as follows: Acetyltransferase specificity assay (α-KGDH coupled), PCAF. In kind it is biochemical. On the procedure: (§1) The specificity of GO-CoA-Tat with the acetyltransferases p300, PCAF, and AANAT was measured using an α-ketoglutarate dehydrogenase (α-KGDH) coupled spectrophotometric assay (37). Recombinant acetyltransferase domains and histone tail peptides were prepared as described previously (38-40). The production of CoASH by the acetyltransferase is coupled to the formation of NADH, which is monitored at 340 nm (ε340=6230 M^−1 cm^−1) in a Beckman DU-640 spectrophotometer. All reactions contain 200 μM thiamine pyrophosphate, 5 mM MgCl2, 1 mM DTT, 50 μg/mL BSA, 200 μM NAD, 2.4 mM α-ketoglutarate, 10 μM GO-CoA-Tat, and 50 μM acetyl-CoA. Reactions with p300 were performed in 100 mM HEPES, pH 7.9, and contain 0.1 units α-KGDH and 200 μM H4-15, a 15-mer peptide substrate based on the sequence of the histone H4 tail. p300 reactions are incubated at 30° C. prior to initiation with addition of 100 nM p300 and take place at 30° C. Reactions with PCAF are performed in 100 mM HEPES, pH 7.9, and contain 0.037 units α-KGDH and 100 μM H3-20, a 20-mer peptide substrate based on the sequence of the histone H3 tail. PCAF reactions are incubated at 30° C. for 10 minutes prior to initiation with addition of 100 nM PCAF and take place at 30° C. Reactions with AANAT are performed in 100 mM NH4OAc, pH 6.8, and contain 0.1 units α-KGDH and 200 μM tryptamine. […]

Data set [2] is described as follows: Blood chemistries and blood cell counts after 12 days of treatment. Conditions: 12 day treatment. It counts as in vivo, mice. The text has this:
To investigate the potential for GO-CoA-Tat induced generalized toxicity or organ damage as a source of weight loss, we assessed the blood chemistries and blood cell counts in the 12 day GO-CoA-Tat treated animals.

The subject of data set [3] is HEPG2 cell. The data set is described as follows: Cell viability assay (LIVE/DEAD), HepG2 cells. Conditions: 10 μM, 24 hr incubation. It counts as cell-based, human. On the procedure: (§2) The viability of the HEL cell line and the human immortalized hepatocyte cell line HepG2 (ATCC, Manassas, Va.) treated with the varying concentrations of GO-CoA-Tat was determined using a LIVE/DEAD viability assay kit (Molecular Probes). […] were incubated with two probes, 2 μM calcein-AM (green color) for 30 min and 4 μM ethidium homodimer-1 (EtdD-1, bright red color) for 10 min, for intracellular esterase activity and plasma membrane integrity, respectively. Calcein-AM was excited using the 500 nm laser line, and the emitted fluorescence was detected through a 535 nm long-pass filter. EtdD-1 was excited using the 514 nm laser line, and the emitted fluorescence was detected through a 550 nm long-pass filter. Red fluorescent (EtdD-1) cells were counted as dead, and green fluorescent (Calcein-AM) were counted as viable. In cases of dual partial red and green staining, cells were counted as dead.

The test system of data set [4] is HEL cell. The data set is described as follows: Cell viability assay (LIVE/DEAD), HEL cells. It counts as cell-based, human. Conditions: 10 μM, 24 hr incubation. Here is the method: as §2
For data set [5], the target named is T2, serotonin N-acetyltransferase (Ovis aries, UniProt Q29495).
T2 construct: Recombinant acetyltransferase domains and histone tail peptides were prepared as described previously (38-40); made in house
T2 sequence (Q29495 35-196 limits assumed): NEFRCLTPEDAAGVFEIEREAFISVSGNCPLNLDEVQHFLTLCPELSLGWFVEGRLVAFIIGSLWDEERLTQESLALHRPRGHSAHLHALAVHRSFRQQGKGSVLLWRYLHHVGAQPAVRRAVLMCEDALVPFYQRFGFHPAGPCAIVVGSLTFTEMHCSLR
The data set is described as follows: Acetyltransferase specificity assay (α-KGDH coupled), AANAT. It counts as biochemical. On the procedure: as §1

In data set [6] the target is T3, p300 HAT (Homo sapiens, UniProt Q09472).
T3 construct: Recombinant acetyltransferase domains and histone tail peptides were prepared as described previously (38-40); made in house
T3 sequence (Q09472 1287-1663 limits assumed): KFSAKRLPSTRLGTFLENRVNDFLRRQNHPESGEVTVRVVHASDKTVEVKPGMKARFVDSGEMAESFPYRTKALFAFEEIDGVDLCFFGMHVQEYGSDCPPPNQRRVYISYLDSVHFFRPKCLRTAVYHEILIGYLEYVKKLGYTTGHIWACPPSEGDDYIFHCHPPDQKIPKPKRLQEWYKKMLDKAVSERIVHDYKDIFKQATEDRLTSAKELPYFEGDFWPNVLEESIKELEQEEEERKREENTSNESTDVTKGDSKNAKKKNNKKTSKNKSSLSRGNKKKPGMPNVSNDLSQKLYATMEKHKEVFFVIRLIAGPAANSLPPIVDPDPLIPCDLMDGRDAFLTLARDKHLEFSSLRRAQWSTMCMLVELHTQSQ
The data set is described as follows: Acetyltransferase specificity assay (α-KGDH coupled), p300. It counts as biochemical. On the procedure:
as §1

T1 sequence (Q92831 503-651 limits assumed): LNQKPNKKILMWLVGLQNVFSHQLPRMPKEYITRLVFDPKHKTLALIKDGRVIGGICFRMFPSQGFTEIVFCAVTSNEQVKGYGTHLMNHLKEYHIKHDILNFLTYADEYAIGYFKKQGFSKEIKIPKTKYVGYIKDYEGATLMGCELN

Regarding `CCCCCCC(SCCNC(=O)CCNC(=O)[C@H](O)C(C)(C)COP(=O)(O)OP(=O)(O)OC[C@H]1O[C@@H](n2cnc3c(N)ncnc32)[C@H](O)[C@@H]1OP(=O)(O)O)C(=O)NC[C@H](NC(=O)[C@H](CO)NC(=O)CN)C(=O)N[C@@H](Cc1ccccc1)C(=O)N[C@@H](CC(C)C)C(=O)N[C@@H](CO)C(=O)N1CCC[C@H]1C(=O)N[C@@H](CCC(=O)O)C(=O)N[C@@H](Cc1c[nH]cn1)C(=O)N[C@@H](CCC(N)=O)C(=O)NCCCCCC(=O)N[C@@H](Cc1ccc(O)cc1)C(=O)NCC(=O)N[C@@H](CCCNC(=N)N)C(=O)N[C@@H](CCCCN)C(=O)N[C@@H](CCCCN)C(=O)N[C@@H](CCCNC(=N)N)C(=O)N[C@@H](CCCNC(=N)N)C(=O)N[C@@H](CCC(N)=O)C(=O)N[C@@H](CCCNC(=N)N)C(=O)N[C@@H](CCCNC(=N)N)C(=O)N[C@@H](CCCNC(=N)N)C(=O)O` (some centres unmarked) [GO-CoA-Tat], the inhibition at 10 µM in data set [1], in data set [5] and in data set [6] was less than 15% throughout. Further, the “organ toxicity from blood chemistries and blood cell counts” value in data set [2] (29 mg/kg IP daily) is reported as “no evidence of liver, renal, pancreas, or bone marrow toxicities”. In addition, the HDL result in data set [2] (vs. D4-Tat) was “small but significant increases”. Also, the triglycerides entry in data set [2] (vs. D4-Tat) is “small but significant increases”. The HEPG2 cell viability entry in data set [3] is on record as “non-toxic”. In data set [4], the HEL cell viability entry is on record as “non-toxic”.

A word on the inhibition: it is the percentage by which the read-out fell short of the control. Lower therefore signals a weak effect.
